The values below come from patent US20160208003A1 (AFFITECH RESEARCH, published 2016).

For test [1], the target named is T1, human CC chemokine receptor 4 (CCR4) (human, UniProt P51679 1-360).
T1 construct: whole, on cells; Always presented on cells; also called CD194; human CCR4
T1 sequence (looked up): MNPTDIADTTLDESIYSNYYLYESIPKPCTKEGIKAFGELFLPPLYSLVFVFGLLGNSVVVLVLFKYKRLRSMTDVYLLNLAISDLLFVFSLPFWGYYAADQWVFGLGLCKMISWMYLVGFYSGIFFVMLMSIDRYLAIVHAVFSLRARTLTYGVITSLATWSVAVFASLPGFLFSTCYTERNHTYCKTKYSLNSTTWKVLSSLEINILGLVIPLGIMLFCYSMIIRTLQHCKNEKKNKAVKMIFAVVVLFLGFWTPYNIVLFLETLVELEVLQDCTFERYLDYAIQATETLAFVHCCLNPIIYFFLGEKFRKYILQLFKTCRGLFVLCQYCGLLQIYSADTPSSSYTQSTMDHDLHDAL
In words: calculated from the IC50; CCRF-CEM cells, competitor 0.7 nM biotinylated IgG 9E. The procedure: (§1) DT40 and CCRF-CEM cells were cultivated as described in Example 2. The cells were harvested from culture flasks, washed 2 times with PBS (400×g, 5 min, 4° C.) and resuspended in PBS containing 0.2% BSA and 0.09% NaN3. 1×10^5 cells per well were aliquoted into V-shaped 96-well plates (Griner Bio-One, Frikenhausen, Germany). Cells were centrifuged (400×g, 5 min, 4° C.) and resuspended in 50 μl IgG 9E10J or KM3060var (dilution series starting at 5 μg/ml) mixed with biotinylated competitor antibody 9E (0.1 or 0.5 μg/ml). The cells were incubated for 2 hours at 4° C., mixing with a pipette every 45 min. The cells were washed three times with 150 μl PBS with 0.2% BSA and 0.09% NaN3 and stained with 3 μg/ml streptavidin PE (BD Biosciences) for 45 minutes at 4° C. Cells were washed, resuspended in 200 μl PBS with 0.2% BSA and 0.09% NaN3, and transferred to a U-shaped 96 well Costar (Corning, Schiphol-Rijik, The Netherlands) plate for flow cytometry using an FACS Canto II flow cytometer (BD Biosciences, Heidelberg, Germany).

In test [2] the target is T1, human CC chemokine receptor 4 (CCR4). In words: flow cytometry competition; antibody titrated, competitor biotinylated MDC; cell line not given. The method, then:
The cells were harvested from culture flasks, washed 2 times with PBS (400×g, 5 min, 4° C.) and resuspended in PBS containing 0.2% BSA and 0.09% NaN3. 1×10^5 cells per well were aliquoted into V-shaped 96-well plates (Greiner Bio-One, Frikenhausen, Germany). Cells were centrifuged (400×g, 5 min, 4° C.) and resuspended in 50 μl IgG, single chain or unlabeled ligand (1:10 dilution series starting on 100/500/26, 4 μg/ml) mixed with a fixed concentration of biotinylated ligand (10 or 20 nM, see legend to FIG. 24). The cells were incubated for 2 hours at 4° C. and mixed with a pipette every 45 min. The cells were washed three times with 150 μl PBS with 0.2% BSA and 0.09% NaN3 and stained with 3 μg/ml streptavidin PE (BD Biosciences) for 45 minutes at 4° C. Cells were washed, resuspended in 200 μl PBS with 0.2% BSA and 0.09% NaN3, and transferred to a U-shaped 96 well Costar (Corning, Schiphol-Rijik, The Netherlands) plate for flow cytometry using an FACS Canto II flow cytometer (BD Biosciences, Heidelberg, Germany). […] Apparent binding affinities (KD) were calculated according to the following equation derived from previously described methods (Kipriyanov et al, 1997b; Schodin & Kranz, 1993): […]
Background: In flow cytometry, cells or beads pass a laser one at a time.

The target in test [3] is T2, monkey (Macaca mulatta) CCR4 (monkey (Macaca mulatta), UniProt F7GUA3 1-360).
T2 construct: also called monkey CCR4
T2 sequence: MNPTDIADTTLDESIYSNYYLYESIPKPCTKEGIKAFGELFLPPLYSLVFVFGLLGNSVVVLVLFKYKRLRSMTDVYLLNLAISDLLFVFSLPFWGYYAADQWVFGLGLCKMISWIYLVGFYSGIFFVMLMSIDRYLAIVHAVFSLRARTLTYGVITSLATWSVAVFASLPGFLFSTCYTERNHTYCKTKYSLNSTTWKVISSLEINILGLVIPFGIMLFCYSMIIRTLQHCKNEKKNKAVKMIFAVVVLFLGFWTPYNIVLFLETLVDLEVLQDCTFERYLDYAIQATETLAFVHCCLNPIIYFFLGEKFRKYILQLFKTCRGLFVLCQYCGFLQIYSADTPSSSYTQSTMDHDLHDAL
Briefly: flow cytometry, 10 µg/ml antibody on HEK-293T/17 cells transiently transfected with monkey CCR4, anti-human-IgG-PE. The procedure:
For transient transfection, Hek293T/17 cells were seeded as 2×10^6 cells in a T75 (NUNC) flask. 48 h after seeding, the cells were transfected with Fugene (ROCHE). 40 μl Fugene and 16 μg DNA are used per T75. The cells were used for assays 48 h after transfection.
HEK-293T/17 cells, were transiently transfected either with pcDNA3.1 plasmid encoding human CCR4 or with pLNO plasmids (Norderhaug et al, 1997) encoding either mouse (GeneBank CAA62372) or monkey (Macaca mulatta) CCR4 (PubMed access number XP_001098807) using Fugene (Roche) as a transfection reagent. Non-transfected (CCR4 negative) cells served as a negative control. The cells were cultivated further for 48 hours under regular conditions described above. The cells were washed twice with PBS, detached from the culture flasks by incubating with Accutase (PAA laboratories, Linz, Austria) for 3 minutes at room temperature. The cells were then washed 2 times with PBS (400×g, 5 min, 4° C.) and resuspended in PBS containing 0.2% BSA and 0.09% NaN₃. 1×10⁵ cells per well were aliquoted into V-shaped 96-well plates (Griner Bio-One, Frikenhausen, Germany). Cells were centrifuged (400×g, 5 min, 4° C.) and resuspended in 50 μl of 10 μg/ml 9E or 9E10J, in PBS containing 0.2% BSA and 0.09% NaN3. The cells were incubated further at 4° C. for 60 min. The samples were then washed twice by centrifugation and re-suspension in 100 μl FACS buffer. […]

Test [4] concerns the target T1, human CC chemokine receptor 4 (CCR4). In words: flow cytometry competition on DT-40-CCR4+ cells; unlabelled IgG titrated, competitor 3.3 nM biotinylated IgG 9E. The method, then: Further competition experiments were carried out to assess whether or not the test antibodies recognise the same or overlapping epitopes, and to determine their relative affinities for CCR4. Antibodies 9E10J, 9E and KM3060var were tested using labelled 9E as a competitor.
as §1

B1: 9E10J IgG (full length human IgG1, lambda) (antibody, V domains shown)
VH: QVQLVQSGAEVKKPGSSVKVSCKASGGTFSSYAISWVRQAPGQGLEWMGGIIPIFGTANYAQKFQGRVTMTRDTSTSTVYMELSSLRSEDTAVYYCARRGGSYFDYWGQGTLVTVSS
VL: SYVLTQPPSASGTPGQSVTISCSGSTSNIGSHYVFWYQQLPGTAPRLLIYRNHQRPSGVPDRLSGSKSGTSASLAISGLRSEDEADYYCAVWDDTLSGWVFGGGTKLTVLG
notes: also called IgG 9E10J; unmodified 9E10J
On to B1, for which the equilibrium dissociation constant (Kd) in test [1] was 60 pM. In addition, the 50% inhibitory concentration (IC50) turned out to be 850 pM in test [2] and 150 pM in test [4]. Besides, the binding result in test [3] is recorded as “binds”.

B2: 9E IgG (full length human IgG1, lambda) (antibody, V domains shown)
VH: QVQLVQSGAEVKKPGSSVKVSCKASGGTFSNYAISWVRQAPGQGLEWMGGIIPIFGTANYAQKFQGRVTITADESTSTAYMELSSLRSEDTAVYYCARRGGSYFDYWGQGTLVTVSS
VL: SYVLTQPPSASGTPGQSVTISCSGSTSNIGSHYVFWYQQLPGTAPRLLIYRNHQRPSGVPDRLSGSKSGTSASLAISGLRSEDEADYYCAVWDDTLSGWVFGGGTKLTVLG
notes: also called IgG 9E; IgG1 9E
As for B2, in test [1], the Kd is 330 pM. For the same molecule, the IC50 in test [2] was determined as 3900 pM; in test [4] it was 3500 pM. In test [3], the binding result is given as “binds”.

What is called Kd is the concentration at which binding is half-saturated. The IC50 is the point on the concentration scale where inhibition reaches its midpoint.
